This passage reports binding result and Kd results from article PMC3936774.

For series [1], the target named is Sa Hfq F25W (Staphylococcus aureus, UniProt A0A0H3JV59 1-77, F25W). The series is described as follows: Trp fluorescence quenching.
The target of series [2] is Sa Hfq Q31W (Staphylococcus aureus, UniProt A0A0H3JV59 1-77, Q31W). Description: Trp fluorescence quenching.
The target of series [3] is Ec Hfq Q33W (Escherichia coli, UniProt P0A6X3 1-102, Q33W). The series is described as follows: Trp fluorescence quenching.
Series [4] deals with Ec Hfq Y25W (Escherichia coli, UniProt P0A6X3 1-102, Y25W). The series is described as follows: Trp fluorescence quenching.
Series [5] concerns the target T1, Lm Hfq F43W (Listeria monocytogenes, UniProt Q92C58 1-77, F43W).
T1 sequence: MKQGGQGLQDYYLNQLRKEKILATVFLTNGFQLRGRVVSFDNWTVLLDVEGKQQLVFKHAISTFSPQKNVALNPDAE
The series is described as follows: Trp fluorescence quenching.

Series [6] addresses T2, Ec Hfq F42W (Escherichia coli, UniProt P0A6X3 1-102, F42W). The series is described as follows: Trp fluorescence quenching.
Series [7] has as its target T3, Ec Hfq Y83W (Escherichia coli, UniProt P0A6X3 1-102, Y83W). The series is described as follows: Trp fluorescence quenching.
Series [8] concerns the target T4, Ec Hfq F11W (Escherichia coli, UniProt P0A6X3 1-102, F11W). The series is described as follows: Trp fluorescence quenching.
For series [9], the target named is T5, Ec Hfq R17W (Escherichia coli, UniProt P0A6X3 1-102, R17W). Description: fluorescence polarization.
The target in series [10] is Ec Hfq Q95W (Escherichia coli, UniProt P0A6X3 1-102, Q95W). Description: fluorescence polarization.
Series [11] deals with T6, Ec Hfq F39W (Escherichia coli, UniProt P0A6X3 1-102, F39W). The series is described as follows: fluorescence polarization.
Series [12] addresses T7, Ec Hfq G77W (Escherichia coli, UniProt P0A6X3 1-102, G77W). Description: fluorescence polarization.
Series [13] addresses T3, Ec Hfq Y83W. Description: fluorescence polarization.
Series [14] deals with T4, Ec Hfq F11W. Description: fluorescence polarization.
Series [15] addresses T2, Ec Hfq F42W. Description: fluorescence polarization.
For series [16], the target named is Ec Hfq K31W (Escherichia coli, UniProt P0A6X3 1-102, K31W). Description: fluorescence polarization.
Series [17] has as its target T6, Ec Hfq F39W. The series is described as follows: Trp fluorescence quenching.
In series [18] the target is T7, Ec Hfq G77W. The series is described as follows: Trp fluorescence quenching.
Series [19] concerns the target T3, Ec Hfq Y83W. Description: Trp fluorescence quenching. This is another data set of the same source.
Series [20] concerns the target Hfq WT (Escherichia coli, UniProt P0A6X3 1-102). The series is described as follows: fluorescence polarization.
For series [21], the target named is T5, Ec Hfq R17W. Description: Trp fluorescence quenching.

Where two headings read alike, the source gives them in different places.

For AAAAAAAAAAAAAAA (ssRNA) [A15], the binding result in series [1], in series [2], in series [3] and in [4] was “binds” throughout.
Consider UUUUUU (ssRNA) [U6], for which the binding result in [5] and in [6] was “binds” each time.
Turning to GGAGGAGGAGGAGGA (ssRNA) [(GGA)5], the binding result in [7] and in [6] was “binds” each time.
AAGAAGAAGAAGAAG (ssRNA) [(AAG)5]: the binding result in series [3] and in [8] was “binds” in each case.
For the molecule AUAUAUA (ssRNA) [(AU)3A], the binding result in [1], in series [2] and in [5] was “binds” in each case.
In the case of AAAAAAAAAAAAAAA (ssRNA) [A15 (fluorescein)], the Kd in [9] was 3.7 ± 1.5 nM; in series [10], 2.6 ± 1.1 nM; in series [11], 0.59 ± 0.35 nM; in series [12], 2.9 ± 1.7 nM; in series [13], 7.4 ± 2.8 nM; in [14] it was 7.1 ± 0.6 nM. Further, the results for the Kd in series [15] and in [16] were 0.28 ± 0.09 nM and 1.4 ± 0.5 nM, respectively.
Take AUUUUUUCAGAAUCGAAAGGUUCA (structured_RNA) [hfq mRNA site A 24-mer]: the binding result in [17], in series [18], in [3] and in [19] was “binds” throughout.
Regarding GUGUGUG (ssRNA) [(GU)3G], the binding result in [5] is listed as “binds”.
Molecule UUUUUUUUUUUUUUUU (ssRNA) [U16 (fluorescein)] came in with a Kd in series [20] of 6.6 nM.
As for GCAUAUAAGGAAAAGAGAGAAUGG (ssRNA) [hfq mRNA site B 24-mer], the binding result in series [17], in series [3], in series [4], in series [19], in [8] and in [6] was “binds” in each case.
With ACACACA (ssRNA) [(AC)3A], the binding result in series [1] and in series [2] was “binds” each time.

B1: hfq 5'-UTR (64 nt) (structured_RNA)
RNA: GGAUUUUUUCAGAAUCGAAAGGUUCAAAGUACAAAUAAGCAUAUAAGGAAAAGAGAGAAUGGGAUC
Turning to B1, the binding result in series [21], in series [3] and in series [6] was “binds” throughout.
